Measurements reported in paper PMC2248580.

Molecular target: human activated blood coagulation factor X (FXa) (human)
Test: SPR; […]; 37°C; HBS (10 mM Hepes, 150 mM NaCl, 5 mM CaCl2, 0.005% P20, pH 7.4); Langmuir fit; […]

Substance	Kd [nM]	koff [s⁻¹]	kon [M⁻¹ s⁻¹]
CbII, the basic subunit of the CbI-CbII complex (β-neurotoxin) from Pseudocerastes fieldi venom (enzyme)	20	0.0085	420000
bAhp, the basic PLA2 from Gloydious (Agkistrodon) halys pallas venom (from UniProt O42187 17-138) (enzyme)	400	0.016	40000
